In patent US20150104459A1:
Values joined by “and” are separate entries in the source; they are usually repeats but may differ in a detail not shown here. Equal entries are not always repeated.

What was measured:
Settings in all cases: remark: other sources report otherwise
[1] = target: recombinant soluble homotrimeric HA, A/duck/Yangzhou/02/2005 (H8N4) (influenza A virus A/duck/Yangzhou/02/2005 (H8N4)); experiment: microarray, trimeric HA, transfection supernatant
[2] = target: recombinant soluble homotrimeric HA, A/Hong Kong/156/97 (H5N1) (influenza A virus A/Hong Kong/156/97 (H5N1)); experiment: microarray, trimeric HA, transfection supernatant
[3] = target: recombinant soluble homotrimeric HA, A/Anhui/1/05 (H5N1) (influenza A virus A/Anhui/1/2005 (H5N1)); experiment: microarray, trimeric HA, transfection supernatant
[4] = target: recombinant soluble homotrimeric HA of A/Netherlands/219/03 (H7N7) (Influenza A virus A/Netherlands/219/03 (H7N7)); experiment: HA microarray, control mAb
[5] = target: recombinant soluble homotrimeric HA of A/swine/Ontario/01911-2/99 (H4N6) (Influenza A virus A/Swine/Ontario/01911-2/99 (H4N6)); experiment: HA microarray, control mAb
[6] = target: T1, recombinant soluble homotrimeric HA of A/Wisconsin/67/05 (H3N2) (Influenza A virus A/Wisconsin/67/2005 (H3N2)); experiment: HA microarray, control mAb
[7] = target: T2, recombinant soluble homotrimeric HA of A/Japan/305/57 (H2N2) (Influenza A virus A/Japan/305/1957 (H2N2)); experiment: HA microarray, control mAb
[8] = target: T3, recombinant soluble homotrimeric HA of A/Anhui/1/05 (H5N1) (Influenza A virus A/Anhui/1/2005 (H5N1)); experiment: HA microarray, control mAb
[9] = target: T4, recombinant soluble homotrimeric HA of A/duck/Yangzhou/02/2005 (H8N4) (Influenza A virus A/duck/Yangzhou/02/2005 (H8N4)); experiment: HA microarray, control mAb
[10] = target: T5, recombinant soluble homotrimeric HA of A/California/4/09 (H1N1) (Influenza A virus A/California/04/2009 (H1N1)); experiment: HA microarray, control mAb
[11] = target: T6, recombinant soluble homotrimeric HA of A/Egypt/3300-NAMRU3/08 (H5N1) (Influenza A virus A/Egypt/3300-NAMRU3/2008 (H5N1)); experiment: HA microarray, control mAb
[12] = target: recombinant soluble homotrimeric HA of A/Hong Kong/2108/03 (H9N2) (Influenza A virus A/Hong Kong/2108/2003 (H9N2)); experiment: HA microarray, control mAb
[13] = target: T7, recombinant soluble homotrimeric HA of A/Indonesia/5/05 (H5N1) (Influenza A virus A/Indonesia/5/2005 (H5N1)); experiment: HA microarray, control mAb
[14] = target: T8, recombinant soluble homotrimeric HA of A/chicken/Vietnam/NCVD-016/08 (H5N1) (Influenza A virus A/chicken/Vietnam/NCVD-016/2008 (H5N1)); experiment: HA microarray, control mAb
[15] = target: T9, recombinant soluble homotrimeric HA of A/Vietnam/1203/04 (H5N1) (Influenza A virus A/Vietnam/1203/2004 (H5N1)); experiment: HA microarray, control mAb
[16] = target: T10, recombinant soluble homotrimeric HA of A/Solomon Islands/3/06 (H1N1) (Influenza A virus A/Solomon Islands/3/2006 (H1N1)); experiment: HA microarray, control mAb
[17] = target: recombinant soluble homotrimeric HA, A/chicken/Vietnam/NCVD-016/08 (H5N1) (influenza A virus A/chicken/Vietnam/NCVD-016/2008 (H5N1)); experiment: microarray, trimeric HA, transfection supernatant
[18] = target: recombinant soluble homotrimeric HA, A/Hong Kong/2108/03 (H9N2) (influenza A virus A/Hong Kong/2108/2003 (H9N2)); experiment: microarray, trimeric HA, transfection supernatant
[19] = target: recombinant soluble homotrimeric HA, A/northern shoveler/California/HKWF115/2007 (H6N1) (influenza A virus A/northern shoveler/California/HKWF115/2007 (H6N1)); experiment: microarray, trimeric HA, transfection supernatant
[20] = target: recombinant soluble homotrimeric HA, A/Hong Kong/1073/99 (H9N2) (influenza A virus A/Hong Kong/1073/99 (H9N2)); experiment: microarray, trimeric HA, transfection supernatant
[21] = target: T1, recombinant soluble homotrimeric HA of …; experiment: HA microarray, BCC supernatant
[22] = target: T2, recombinant soluble homotrimeric HA of …; experiment: HA microarray, BCC supernatant
[23] = target: T3, recombinant soluble homotrimeric HA of …; experiment: HA microarray, BCC supernatant
[24] = target: T4, recombinant soluble homotrimeric HA of …; experiment: HA microarray, BCC supernatant
[25] = target: T5, recombinant soluble homotrimeric HA of …; experiment: HA microarray, BCC supernatant
[26] = target: recombinant soluble homotrimeric HA of A/northern shoveler/California/HKWF115/2007 (H6N1) (Influenza A virus A/northern shoveler/California/HKWF115/2007 (H6N1)); experiment: HA microarray, BCC supernatant
[27] = target: T6, recombinant soluble homotrimeric HA of …; experiment: HA microarray, BCC supernatant
[28] = target: T7, recombinant soluble homotrimeric HA of …; experiment: HA microarray, BCC supernatant
[29] = target: T8, recombinant soluble homotrimeric HA of …; experiment: HA microarray, BCC supernatant
[30] = target: T9, recombinant soluble homotrimeric HA of …; experiment: HA microarray, BCC supernatant
[31] = target: T10, recombinant soluble homotrimeric HA of …; experiment: HA microarray, BCC supernatant
[32] = target: T11, recombinant homotrimeric HA, A/Wisconsin/67/05 H3N2 (Influenza A virus A/Wisconsin/67/05 (H3N2)); experiment: trimeric HA microarray; transfection supernatant set 4
[33] = target: recombinant homotrimeric HA, A/Egypt/3300-NAMRU3/08 H5N1 (Influenza A virus A/Egypt/3300-NAMRU3/08 (H5N1)); experiment: trimeric HA microarray; transfection supernatant set 3
[34] = target: recombinant homotrimeric HA, A/common magpie/Hong Kong/5052/07 H5N1 (Influenza A virus A/common magpie/Hong Kong/5052/07 (H5N1)); experiment: as above
[35] = target: recombinant homotrimeric HA, A/California/4/09 H1N1 (Influenza A virus A/California/4/09 (H1N1)); experiment: as above
[36] = target: recombinant homotrimeric HA, A/Hong Kong/1073/99 H9N2 (Influenza A virus A/Hong Kong/1073/99 (H9N2)); experiment: as above
[37] = target: recombinant homotrimeric HA, A/northern shoveler/California/HKWF115/07 (Influenza A virus A/northern shoveler/California/HKWF115/2007 (H6N1; Table 16 prints H6N4)); experiment: as above
[38] = target: T11, recombinant homotrimeric HA, …; experiment: as above
[39] = target: recombinant homotrimeric HA, A/Solomon Islands/3/06 H1N1 (Influenza A virus A/Solomon Islands/3/06 (H1N1)); experiment: as above
[40] = target: recombinant homotrimeric HA, A/Indonesia/5/05 H5N1 (Influenza A virus A/Indonesia/5/05 (H5N1)); experiment: as above
[41] = target: recombinant homotrimeric HA, A/South Carolina/1/18 H1N1 (Influenza A virus A/South Carolina/1/18 (H1N1)); experiment: as above
[42] = target: recombinant homotrimeric HA, A/Vietnam/1203/04 H5N1 (Influenza A virus A/Vietnam/1203/04 (H5N1)); experiment: as above
[43] = target: recombinant homotrimeric HA, A/Anhui/1/05 H5N1 (Influenza A virus A/Anhui/1/05 (H5N1)); experiment: as above
[44] = target: recombinant homotrimeric HA, A/Japan/305/57 H2N2 (Influenza A virus A/Japan/305/57 (H2N2)); experiment: as above
[45] = target: recombinant homotrimeric HA, A/chicken/Vietnam/NCVD-016/08 H5N1 (Influenza A virus A/chicken/Vietnam/NCVD-016/08 (H5N1)); experiment: as above

B1: TCN-504 (3251_K17) (antibody, V domains shown)
VH: QVQLQESGPGLVKPSETLSLTCAVSGVSISNIDFYWGWIRQPPGKGLEWIGNIYYTGITFYNPSLSSRVAISIDTSKNQFSLTLTSVTAADTAMYYCARHYGDSEAINDAFDIWGQGTMLTVSS
VL: EIVMTQSPATLSVSPGERATLSCRASQSVGNSLAWYQQRPGQAPRLLIYGASTRATGIPPRFSGSGSGTEFTLTISSLQTEDFAVYYCQQYINWRPLSFGGGTKVEIK
Trimeric HA Binding RLU [1]: 19600 RLU and 19900 RLU and 35100 RLU | Trimeric HA Binding RLU [2]: 26600 RLU | Trimeric HA Binding RLU [3]: 30000 RLU and 14100 RLU and 37200 RLU | Trimeric HA Binding RLU [4]: 47200 RLU | Trimeric HA Binding RLU [5]: 14700 RLU | Trimeric HA Binding RLU [6]: 40500 RLU | Trimeric HA Binding RLU [7]: 4090 RLU | Trimeric HA Binding RLU [8]: 26200 RLU | Trimeric HA Binding RLU [9]: 14100 RLU | Trimeric HA Binding RLU [10]: 3330 RLU | Trimeric HA Binding RLU [11]: 44400 RLU | Trimeric HA Binding RLU [12]: 454 RLU | Trimeric HA Binding RLU [13]: 43300 RLU | Trimeric HA Binding RLU [14]: 38500 RLU | Trimeric HA Binding RLU [15]: 196 RLU | Trimeric HA Binding RLU [16]: 24100 RLU

B2: TCN-534 (5249_B02) (antibody, V domains shown)
VH: QVQLVQSGAEVKKPGSSVKVSCRESGGTFNGYTITWVRQAPGQGLEWMGGIIPMMGTVNYAQKLQGRVTITTDYFTKTAYMDLNNLRSEDTAMYYCVKIRYTGQQLLWGQGTLVTVSS
VL: DIQMTQSPSTLSASIGDRVTITCRASQSIASWLAWYQQKPGKAPKLLIYEAVNLESGVPSRFSGSGSGTDFTLTISSLQPDDFATYFCQHYGTISQTFGGGTKVEIK
Trimeric HA Binding RLU [17]: 11400 RLU | Trimeric HA Binding RLU [18]: 27 RLU | Trimeric HA Binding RLU [19]: 21300 RLU | Trimeric HA Binding RLU [20]: 731 RLU | Trimeric HA Binding RLU [21]: 7980 RLU | Trimeric HA Binding RLU [22]: 50600 RLU | Trimeric HA Binding RLU [23]: 6860 RLU | Trimeric HA Binding RLU [24]: 46500 RLU | Trimeric HA Binding RLU [25]: 30100 RLU | Trimeric HA Binding RLU [26]: 52400 RLU | Trimeric HA Binding RLU [27]: 41400 RLU | Trimeric HA Binding RLU [28]: 46400 RLU | Trimeric HA Binding RLU [29]: 56600 RLU | Trimeric HA Binding RLU [30]: 3440 RLU | Trimeric HA Binding RLU [31]: 44200 RLU | Trimeric HA Binding: RLU [32]: 897 RLU

B3: TCN-533 (5256_A17) (antibody, V domains shown)
VH: QVQLVQSGADVKKPGSSVTVSCKASGGSFSNYGINWVRQAPGQGLEWMGGIIPLINAPNYAPKFQGRVTITADMFSNIVSLQLTSLRTDDTAVYYCARRKMTTAIDYWGQGTLVTVSS
VL: QPVLSQPPSASASLGASVTLTCTLSSGFDNYQVAWYQQRPGKGPRFVMRVGNGGNVASKGDGIPDRFSVSGSGLNRYLTIKNIQEDDESDYYCGADHGSGNNFVSPYVFGGGTKLTVL
Trimeric HA Binding RLU [21]: 13800 RLU | Trimeric HA Binding RLU [22]: 10800 RLU | Trimeric HA Binding RLU [23]: 8060 RLU | Trimeric HA Binding RLU [24]: 24700 RLU | Trimeric HA Binding RLU [25]: 29300 RLU | Trimeric HA Binding RLU [26]: 41400 RLU | Trimeric HA Binding RLU [27]: 34300 RLU | Trimeric HA Binding RLU [28]: 44100 RLU | Trimeric HA Binding RLU [29]: 47700 RLU | Trimeric HA Binding RLU [30]: 5680 RLU | Trimeric HA Binding RLU [31]: 39200 RLU | Trimeric HA Binding: RLU [33]: 18600 RLU | Trimeric HA Binding: RLU [34]: 25200 RLU | Trimeric HA Binding: RLU [35]: 6880 RLU | Trimeric HA Binding: RLU [36]: 23800 RLU | Trimeric HA Binding: RLU [37]: 7810 RLU | Trimeric HA Binding: RLU [38]: 16100 RLU | Trimeric HA Binding: RLU [39]: 15500 RLU | Trimeric HA Binding: RLU [40]: 28300 RLU | Trimeric HA Binding: RLU [41]: 16400 RLU | Trimeric HA Binding: RLU [42]: 11700 RLU | Trimeric HA Binding: RLU [43]: 301 RLU | Trimeric HA Binding: RLU [44]: 18600 RLU | Trimeric HA Binding: RLU [45]: 24600 RLU
